Assay results: patent US20080044421A1

Molecular target: CD20 (human) (UniProt P11836)
Test: FACS on Ramos, Daudi, Raji and BJAB B lymphoma cells; range over four cell lines

Sequence of UniProt P11836 (P11836 whole entry): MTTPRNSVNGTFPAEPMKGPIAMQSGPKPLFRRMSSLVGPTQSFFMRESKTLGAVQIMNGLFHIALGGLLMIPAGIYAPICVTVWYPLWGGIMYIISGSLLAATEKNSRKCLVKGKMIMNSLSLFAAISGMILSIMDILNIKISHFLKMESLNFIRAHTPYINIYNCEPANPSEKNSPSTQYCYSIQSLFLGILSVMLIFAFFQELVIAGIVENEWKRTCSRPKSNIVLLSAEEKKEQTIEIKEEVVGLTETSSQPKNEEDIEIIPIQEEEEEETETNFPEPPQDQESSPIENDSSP

RITUXAN (rituximab), monoclonal antibody specific for CD20
mean fluorescence shift: 5 to 15 units
